# From patent US20250368738A1 (PHILOGEN S P A, published 2025)
# B1: AE2P antibody in IgG4 format (antibody, V domains shown)
# VH: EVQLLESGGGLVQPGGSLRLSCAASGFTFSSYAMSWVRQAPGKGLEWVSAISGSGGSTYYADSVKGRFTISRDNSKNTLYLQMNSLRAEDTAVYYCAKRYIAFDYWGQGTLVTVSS
# VL: DIQMTQSPSSLSASVGDRVTITCRASQSISSYLNWYQQKPGKAPKLLIYAASSLQSGVPSRFSGSGSGTDFTLTISSLQPEDFATYYCQQGGMPPDTFGQGTKVEIKR
# notes: unconjugated in flow cytometry; also called AE2P IgG4; IgG4 (AE2P)
# B2: anti-human CEA IgG/AE2P (scFv)2 bispecific antibody in IgG-(scFv)2 (2+2) format (format 1, FIG. 13) (bispecific antibody)
# heavy: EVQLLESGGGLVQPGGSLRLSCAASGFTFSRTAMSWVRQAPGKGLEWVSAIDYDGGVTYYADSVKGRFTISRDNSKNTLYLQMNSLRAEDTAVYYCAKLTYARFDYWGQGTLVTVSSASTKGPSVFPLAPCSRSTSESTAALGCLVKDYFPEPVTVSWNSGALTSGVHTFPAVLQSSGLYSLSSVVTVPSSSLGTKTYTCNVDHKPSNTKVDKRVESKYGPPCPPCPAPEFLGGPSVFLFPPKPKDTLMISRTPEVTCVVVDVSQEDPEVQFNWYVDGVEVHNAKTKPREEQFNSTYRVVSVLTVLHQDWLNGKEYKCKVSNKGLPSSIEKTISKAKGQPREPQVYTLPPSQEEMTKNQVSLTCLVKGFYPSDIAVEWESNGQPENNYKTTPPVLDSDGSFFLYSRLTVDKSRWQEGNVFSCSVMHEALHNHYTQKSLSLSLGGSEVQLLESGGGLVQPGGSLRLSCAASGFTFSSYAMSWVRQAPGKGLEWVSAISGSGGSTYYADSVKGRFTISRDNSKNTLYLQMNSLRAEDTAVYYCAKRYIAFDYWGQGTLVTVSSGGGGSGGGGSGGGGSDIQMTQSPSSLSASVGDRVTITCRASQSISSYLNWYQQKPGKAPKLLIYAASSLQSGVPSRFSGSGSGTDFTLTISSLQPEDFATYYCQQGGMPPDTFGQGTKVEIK
# light: EIVLTQSPGTLSLSPGERATLSCRASQSVSQNHLAWYQQKPGQAPRLLIYLASRRHTGIPDRFSGSGSGTDFTLTISRLEPEDFAVYYCQQSGRVPWTFGQGTKVEIKRTVAAPSVFIFPPSDEQLKSGTASVVCLLNNFYPREAKVQWKVDNALQSGNSQESVTEQDSKDSTYSLSSTLTLSKADYEKHKVYACEVTHQGLSSPVTKSFNRGEC
# notes: also called anti-human CEA IgG/anti-CD28 (scFv)2 bispecific antibody
# B3: TGN1412 IgG4 (antibody, V domains shown)
# VH: QVQLVQSGAEVKKPGASVKVSCKASGYTFTSYYIHWVRQAPGQGLEWIGCIYPGNVNTNYNEKFKDRATLTVDTSISTAYMELSRLRSDDTAVYFCTRSHYGLDWNFDVWGQGTTVTVSS
# VL: not shown
# notes: U.S. Pat. No. 8,709,414'; also called TGN1412 antibody in IgG4 format
# Assays:
# [1] = biological target: T1, human CD28 expressed on primary human T cells (human, UniProt P10747 19-220); experiment: flow cytometry on primary human T cells, 50 nM antibody
# T1 construct: whole, on cells; also called primary human T cells expressing CD28
# Protocol: Cells were first blocked for 30 minutes in FACS buffer (PBS, 2% FBS and 2 mM EDTA). […] Zombie near infrared (NIR) was used to discriminate live from dead cells.
# [2] = biological target: T2, human CTLA-4 protein containing His6 Tag (SinoBiological, Cat: 11159-H08H) (human, UniProt P16410 36-162); experiment: titration ELISA, His6-tagged human CTLA-4 on NiNTA plates, FITC-conjugated antibody
# T2 construct: Bought protein
# [3] = biological target: T3, murine CD28 on the surface of primary mouse T cells (mouse, UniProt P31041 20-218); experiment: flow cytometry on primary mouse T cells, 50 nM antibody
# T3 construct: whole, on cells
# murine CD28 Fc = biological target: T4, murine CD28 Fc (mouse, UniProt P31041 20-150); experiment: titration ELISA, His6-tagged CD28-ECD on NiNTA plates, FITC-conjugated antibody
# T4 construct: also called murine CD28 ECD; mouse CD28 Fc; not shown: His6 tag and Fc part of the murine construct
# [4] = biological target: T5, human CD28-ECD (extracellular domain) recombinant fragment containing a C-terminal Avi tag, His6 tag and Fc … (human, site specifically biotinylated using BirA (Avi tag) in the ELISA of Example 2.1); experiment: titration ELISA
# T5 construct: also called CD28-Fc; CD28-Fc fusion protein
# [5] = biological target: T3, murine CD28 on the surface of primary …; experiment: flow cytometry on primary mouse T cells
# Protocol: Cells were first blocked for 30 minutes in FACS buffer (PBS, 2% FBS and 2 mM EDTA). […] Zombie NIR was used to discriminate live from dead cells.
# T5 sequence (chain, as listed by the source limits assumed): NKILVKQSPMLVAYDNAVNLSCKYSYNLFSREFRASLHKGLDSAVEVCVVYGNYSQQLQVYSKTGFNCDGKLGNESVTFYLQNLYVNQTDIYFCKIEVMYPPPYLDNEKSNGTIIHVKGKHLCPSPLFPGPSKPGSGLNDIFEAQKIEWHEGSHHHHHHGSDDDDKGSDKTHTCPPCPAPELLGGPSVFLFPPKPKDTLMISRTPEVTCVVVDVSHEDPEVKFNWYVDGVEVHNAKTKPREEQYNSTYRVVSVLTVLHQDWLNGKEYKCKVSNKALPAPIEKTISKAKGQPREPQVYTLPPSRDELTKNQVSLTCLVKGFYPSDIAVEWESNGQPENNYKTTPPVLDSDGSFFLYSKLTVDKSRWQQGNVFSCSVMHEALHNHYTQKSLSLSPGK
Binder,binding result [1],binding result [2],binding result [3],binding result (murine CD28 Fc),binding result [4],binding result [5]
B1,binds,binds,binds,binds,binds,–
B2,–,–,binds,–,–,–
B3,–,no binding,–,no binding,–,no binding (tested: 50 nM)
